Experimental data: publication PMC9744743, “Introducing or removing heparan sulfate binding sites does not alter brain uptake of the blood–brain barrier shuttle scFv8D3” (Scientific Reports, 2022)
Numbering of substitutions follows the chain as printed. In names and notes the source's numbering stands. Blank lines part the entries; values can stand above or below the binder they belong to.

Molecular target: T1, recombinant mouse TfR extracellular domain protein (Mus musculus, UniProt Q62351)
T1 construct: transferrin receptor (TfR), mouse, extracellular domain; also called transferrin receptor; source: recombinant, prepared in our lab
T1 sequence (Q62351 89-763): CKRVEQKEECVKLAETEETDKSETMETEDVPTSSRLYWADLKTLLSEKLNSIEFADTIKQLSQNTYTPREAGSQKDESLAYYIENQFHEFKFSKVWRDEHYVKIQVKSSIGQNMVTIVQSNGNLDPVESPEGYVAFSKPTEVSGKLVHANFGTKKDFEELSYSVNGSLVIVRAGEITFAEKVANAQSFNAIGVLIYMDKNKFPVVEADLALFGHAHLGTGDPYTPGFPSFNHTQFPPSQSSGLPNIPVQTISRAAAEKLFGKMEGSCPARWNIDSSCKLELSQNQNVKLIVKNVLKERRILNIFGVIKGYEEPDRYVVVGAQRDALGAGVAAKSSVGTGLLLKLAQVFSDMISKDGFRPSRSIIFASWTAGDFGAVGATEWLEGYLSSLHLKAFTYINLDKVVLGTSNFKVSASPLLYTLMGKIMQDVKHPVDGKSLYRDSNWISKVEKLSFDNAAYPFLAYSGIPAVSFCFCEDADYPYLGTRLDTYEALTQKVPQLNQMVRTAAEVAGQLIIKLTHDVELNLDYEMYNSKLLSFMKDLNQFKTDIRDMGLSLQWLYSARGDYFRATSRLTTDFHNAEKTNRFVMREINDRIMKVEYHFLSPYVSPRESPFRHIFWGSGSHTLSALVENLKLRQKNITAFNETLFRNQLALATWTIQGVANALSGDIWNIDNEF
Assay: ELISA; indirect ELISA; half-area plates coated with 50 ng/well recombinant mouse TfR extracellular domain in PBS overnight at 4 °C, blocked with 1% BSA; serial dilutions of scFvs 2 h at RT in PBS with 0.1% BSA and 0.05% Tween-20; detected by mouse anti-Strep-Tag II and HRP goat anti-mouse
Conditions: both partners purified

binding result: binds
B1: HS(−)scFv8D3 mutant (K42Q_K43Q and K243Q_R244Q) (scFv, V domains shown)
VH: EVQLVESGGGLVQPGNSLTLSCVASGFTFSNYGMHWIRQAPQQGLEWIAMIYYDSSKMNYADTVKGRFTISRDNSKNTLYLEMNSLRSEDTAMYYCAVPTSHYVVDVWGQGVSVTVSS
VL: DIQMTQSPASLSASLEEIVTITCQASQDIGNWLAWYQQKPGKSPQLLIYGATSLADGVPSRFSGSRSGTQFSLKISRVQVEDIGIYYCLQAYNTPWTFGGGTKLELQ
notes: as the heavy chain variable domain of m1 with the stated changes; numbers count on: the whole scFv8D3 chain; linker, printed as SGSTS (G4S)3; as the light chain variable domain of m1 with the stated changes; Same tag, linkers and signal peptide as m1; also called HS minus mutant; source: Expi293 cells, transfected, purified from supernatant (Strep-Tactin XT)

binding result: binds
B2: HS(+)scFv8D3 mutant (S75K and P176K) (scFv, V domains shown)
VH: B1 VH with Q42K, Q43K, S75K
VL: B1 VL with P40K, Q107K
notes: as the heavy chain variable domain of m1 with the stated change; numbers count on: the whole scFv8D3 chain; linker, printed as SGSTS (G4S)3; as the light chain variable domain of m1 with the stated change; Same tag, linkers and signal peptide as m1; That S75 lies in the first domain and P176 in the second is worked out from the residue numbers; also called HS plus mutant; source: Expi293 cells, …
